Measured values reported in PMC10010047.

Target: insulin growth factor-1 receptor (IGF1R) (mouse (endogenous in mouse heart))
Assay: BLI

Kd: 147 µM
B1: recombinant mouse SIRPα Fc chimera protein (rSIRPα) (Fc fusion)
chain: KELKVTQPEKSVSVAAGDSTVLNCTLTSLLPVGPIRWYRGVGPSRLLIYSFAGEYVPRIRNVSDTTKRNNMDFSIRISNVTPADAGIYYCVKFQKGSSEPDTEIQSGGGTEVYVLAKPSPPEVSGPADRGIPDQKVNFTCKSHGFSPRNITLKWFKDGQELHPLETTVNPSGKNVSYNISSTVRVVLNSMDVNSKVICEVAHITLDRSPLRGIANLSNFIRVSPTVKVTQQSPTSMNQVNLTCRAERFYPEDLQLIWLENGNVSRNDTPKNLTKNTDGTYNYTSLFLVNSSAHREDVVFTCQVKHDQQPAITRNHTVLGFAHSSDQGSMQTFPDNNATHNWN
